# Measurements taken from patent US20180311291A1 (PSIOXUS THERAPEUTICS, published 2018).
# What was measured:
# human VEGF-165 [1] = target: T1, human VEGF-165 (human, UniProt P15692-4 27-191); test: direct VEGF binding ELISA and competition ELISA with bevacizumab, HRP anti-His detection; 293F supernatant and lysate
# Experimental: The cells and media were harvested from the flask and the supernatant and cells were separated by centrifuging for 10 mins, 1000 rpm. The supernatant was collected and the remaining cell pellet resuspended in 1 ml of cell media before carrying out 3 freeze-thaw cycles to lyse the cells. Post-lysis the cell debris and media was separated by a second centrifugation step and the supernatant from the lysate was collected. The supernatants or lysates were diluted 1 in 2 in 3% BSA/PBS 0.05% tween. […] Samples were added to the plates at 100 μl/well and incubated for 1 hr VEGF bound ScFv was detected using HRP-conjugated polyclonal anti-His (Abcam ab1187) followed by TMB detection.
# human VEGF-165 [2] = target: T1, human VEGF-165; test: VEGF binding ELISA, HRP anti-His detection
# Experimental: Plates were washed between all subsequent binding steps with PBS 0.05% Tween 20. The plates were blocked for 1 hour at room temperature with 3% BSA in PBS 0.05% Tween 20.
# AD293 cells were seeded in 6 well culture plates at a density of 5e5 cells per well. […] Cells were cultured for 72 hrs before the supernatants were collected from the wells and centrifuged for 5 mins, 1200 rpm to remove cell debris. The clarified supernatants were then used for either VEGF binding ELISA or Western blot analysis. […] Samples were added to the plates at 100 μl/well and assay. The detection antibody, HRP conjugated polyclonal anti-His (Abcam ab1187) was then applied for 1 hr at room temperature before HRP detection was performed with HRP substrate solution 3.3.5.5′-teramethylethylenediamine (TMB, Thermo-Fisher). 1M HCl was used for stopping the reaction and the developed colour was measured at 450 nm on a plate reader.
# recombinant PDL1-Fc = target: T2, recombinant PDL1-Fc (UniProt Q9NZQ7 19-239); test: direct PD-L1 binding ELISA on PDL1-Fc coated plates; 10-fold concentrated supernatant diluted 1 in 2 to 1 in 2048; anti-kappa light chain detection
# T2 construct: also called PDL1-Fc (R&D Systems, 156-B7-100); not shown: Fc part of the bought fusion protein
# recombinant CTLA4-Fc = target: T3, recombinant CTLA4-Fc (UniProt P16410 37-162); test: direct CTLA-4 binding ELISA on CTLA4-Fc coated plates; supernatant diluted 1 in 2 to 1 in 2048
# T3 construct: also called CTLA4-Fc (R&D Systems, 325-CT-200); not shown: Fc part of the bought fusion protein
# [3] = target: T4, non-recombinant PD-L1 ligand expressed in a membrane environment on the surface of lung carcinoma cells (A549) (human, UniProt Q9NZQ7 19-290); test: flow cytometry on A549 cells with or without IFNgamma stimulation; 50 ul concentrated supernatant; Alexa-fluor 488 anti-human IgG detection
# T4 construct: whole, on cells; also called cellular PD-L1; PD-L1 on IFNg stimulated A549 cells
# T4 sequence (Q9NZQ7 19-290): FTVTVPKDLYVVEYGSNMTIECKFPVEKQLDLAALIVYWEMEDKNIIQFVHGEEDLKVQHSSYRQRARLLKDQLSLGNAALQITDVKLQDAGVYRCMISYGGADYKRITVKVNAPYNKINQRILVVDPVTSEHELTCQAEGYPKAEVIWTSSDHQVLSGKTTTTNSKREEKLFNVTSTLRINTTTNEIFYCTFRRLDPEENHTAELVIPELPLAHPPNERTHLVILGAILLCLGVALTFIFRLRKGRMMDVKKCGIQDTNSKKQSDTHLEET
# Experimental: A549 cells were either stimulated with 50 ng/ml human IFNγ to promote upregulation of PD-L1 expression on the cell surface or left unstimulated. […] The cells were washed again, resuspended in PBS/1% BSA and analysed with an Attune acoustic focusing cytometer (Life Technologies).
# T1 sequence (P15692 other isoform, or with tags, fused parts or gaps limits assumed): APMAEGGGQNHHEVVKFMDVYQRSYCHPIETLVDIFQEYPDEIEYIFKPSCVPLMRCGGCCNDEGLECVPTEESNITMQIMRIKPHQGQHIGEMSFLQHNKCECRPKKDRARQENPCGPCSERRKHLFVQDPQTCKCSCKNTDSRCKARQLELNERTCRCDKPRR
# T2 sequence (Q9NZQ7 19-239 limits assumed): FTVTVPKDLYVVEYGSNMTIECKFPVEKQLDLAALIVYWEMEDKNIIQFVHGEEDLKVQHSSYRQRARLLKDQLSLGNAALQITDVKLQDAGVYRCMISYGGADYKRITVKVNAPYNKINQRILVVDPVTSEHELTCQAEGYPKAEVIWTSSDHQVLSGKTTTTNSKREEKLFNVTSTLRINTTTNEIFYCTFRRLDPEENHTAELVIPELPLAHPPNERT
# T3 sequence (P16410 37-162 limits assumed): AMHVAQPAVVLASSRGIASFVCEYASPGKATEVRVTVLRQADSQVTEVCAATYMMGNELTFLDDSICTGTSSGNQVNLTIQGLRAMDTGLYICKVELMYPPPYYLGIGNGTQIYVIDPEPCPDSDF
binder,measurement,setting,value
"anti-VEGF ScFv with C-terminal His6 tag expressed from NG-78 infected cells (scFv, also called NG-78 anti-VEGF ScFv) scFv: EVQLVESGGGLVQPGGSLRLSCAASGYTFTNYGMNWVRQAPGKGLEWVGWINTYTGEPTYAADFKRRFTFSLDTSKSTAYLQMNSLRAEDTAVYYCAKYPHYYGSSHWYFDVWGQGTLVTVSSGGGGSGGGGSGGGGSDIQMTQSPSSLSASVGDRVTITCSASQDISNYLNWYQQKPGKAPKVLIYFTSSLHSGVPSRFSGSGSGTDFTLTISSLQPEDFATYYCQQYSTVPWTFGQGTKVEIKRHHHHHH",binding result,human VEGF-165 [1],binds
"anti-VEGF ScFv with C-terminal His6 tag expressed from NG-76 infected cells (scFv, also called NG-76 anti-VEGF ScFv) scFv: EVQLVESGGGLVQPGGSLRLSCAASGYTFTNYGMNWVRQAPGKGLEWVGWINTYTGEPTYAADFKRRFTFSLDTSKSTAYLQMNSLRAEDTAVYYCAKYPHYYGSSHWYFDVWGQGTLVTVSSGGGGSGGGGSGGGGSDIQMTQSPSSLSASVGDRVTITCSASQDISNYLNWYQQKPGKAPKVLIYFTSSLHSGVPSRFSGSGSGTDFTLTISSLQPEDFATYYCQQYSTVPWTFGQGTKVEIKRHHHHHH",binding result,human VEGF-165 [2],binds
"anti-VEGF full length IgG1 antibody secreted from NG-165 infected cells (antibody, V domains shown) VH: EVQLVESGGGLVQPGGSLRLSCAASGYTFTNYGMNWVRQAPGKGLEWVGWINTYTGEPTYAADFKRRFTFSLDTSKSTAYLQMNSLRAEDTAVYYCAKYPHYYGSSHWYFDVWGQGTLVTVSS VL: DIQMTQSPSSLSASVGDRVTITCSASQDISNYLNWYQQKPGKAPKVLIYFTSSLHSGVPSRFSGSGSGTDFTLTISSLQPEDFATYYCQQYSTVPWTFGQGTKVEIKR",binding result,recombinant PDL1-Fc,no binding
same,binding result,recombinant CTLA4-Fc,no binding
"anti-VEGF full length antibody (human IgG1) secreted from NG-135 infected cells (antibody, V domains shown, also called SSA-Bev-PA) VH: EVQLVESGGGLVQPGGSLRLSCAASGYTFTNYGMNWVRQAPGKGLEWVGWINTYTGEPTYAADFKRRFTFSLDTSKSTAYLQMNSLRAEDTAVYYCAKYPHYYGSSHWYFDVWGQGTLVTVSS VL: DIQMTQSPSSLSASVGDRVTITCSASQDISNYLNWYQQKPGKAPKVLIYFTSSLHSGVPSRFSGSGSGTDFTLTISSLQPEDFATYYCQQYSTVPWTFGQGTKVEIKR",binding result,[3],no binding
